In article PMC5768788:

Target: 14-3-3γ (UniProt P61981)
Experiment: co-immunoprecipitation and immunoblot
Settings: reference: wild-type Flag-PP1α; sites S224,T226

binding against the reference: weaker
Substance: PP1α (from UniProt P62136) S224A/T226A
